Laboratory results: patent publication US20100272723A1 (Xencor, published 2010)
Where a chain is given by its changes, count along the chain named. Names may count otherwise.

T1: human CD19 (human, UniProt P15391 20-556)
T1 construct: also called B-cell surface antigen B4; B-cell antigen CD19
T1 sequence: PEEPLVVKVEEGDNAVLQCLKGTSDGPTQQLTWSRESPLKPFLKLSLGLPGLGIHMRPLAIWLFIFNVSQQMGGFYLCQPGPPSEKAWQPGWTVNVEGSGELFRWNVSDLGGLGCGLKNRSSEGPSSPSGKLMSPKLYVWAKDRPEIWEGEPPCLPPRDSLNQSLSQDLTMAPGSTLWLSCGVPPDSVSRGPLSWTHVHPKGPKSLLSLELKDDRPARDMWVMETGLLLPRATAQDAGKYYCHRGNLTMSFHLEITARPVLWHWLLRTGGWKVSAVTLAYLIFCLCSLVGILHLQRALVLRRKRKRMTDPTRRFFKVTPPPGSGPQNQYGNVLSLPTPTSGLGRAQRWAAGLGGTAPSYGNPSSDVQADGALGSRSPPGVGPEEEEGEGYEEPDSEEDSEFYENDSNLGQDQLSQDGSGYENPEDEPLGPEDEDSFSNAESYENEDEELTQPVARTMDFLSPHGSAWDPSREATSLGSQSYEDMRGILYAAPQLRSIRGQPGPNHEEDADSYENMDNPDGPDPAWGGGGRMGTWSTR

B1: H1.204 / L1.160 (antibody, V domains shown)
VH: EVQLVESGGGLVKPGGSLKLSCAASGYTFTSYVMHWVRQAPGKGLEWIGYINPYNEGTEYNEKFQGRVTISSDKSISTAYMELSSLRSEDTAMYYCARGTYYYGTRVFDYWGQGTLVTVSS
VL: DIVMTQSPATLSLSPGERATLSCRSSKSLQNVNANTYLYWFQQKPGQSPQLLIYRMSNLNSGVPDRFSGSGSGTEFTLTISSLEPEDFAVYYCMQHLEYPITFGAGTKLEIK
notes: vs H1L1 (Kabat): VH D55E/K58E/S100cT; VL L27cQ/S27eV/G29A/A55N/F96I; also called 4G7 H1.204_L1.160
B2: H1.203 / L1.161 (antibody, V domains shown)
VH: B1 VH with E56S
VL: B1 VL with A34S
notes: vs H1L1 (Kabat): VH D55S/K58E/S100cT; VL L27cQ/S27eV/G29S/A55N/F96I; also called 4G7 H1.203_L1.161
B3: H1.203 / L1.155 (antibody, V domains shown)
VH: B1 VH with E56S
VL: B1 VL with A34G
notes: vs H1L1 (Kabat): VH D55S/K58E/S100cT; VL L27cQ/S27eV/A55N/F96I; also called 4G7 H1.203_L1.155
B4: H1.203 / L1.160 (antibody, V domains shown)
VH: B1 VH with E56S
VL: B1 VL
notes: vs H1L1 (Kabat): VH D55S/K58E/S100cT; VL L27cQ/S27eV/G29A/A55N/F96I; also called 4G7 H1.203_L1.160
B5: H1 / L1.3 (antibody, V domains shown)
VH: B1 VH with E56D, E59K, T105S
VL: B1 VL with Q30L, V32S, A34G, S57Q, N60A, I101F
notes: vs H1L1 (Kabat): VL S52Q; also called 4G7 H1_L1.3
B6: H1 / L1.64 (antibody, V domains shown)
VH: B1 VH with E56D, E59K, T105S
VL: B1 VL with Q30L, V32S, A34G, N60A
notes: vs H1L1 (Kabat): VL F96I; also called 4G7 H1_L1.64
B7: H1 / L1.68 (antibody, V domains shown)
VH: B1 VH with E56D, E59K, T105S
VL: B1 VL with Q30L, V32S, A34G, N60A, I101N
notes: vs H1L1 (Kabat): VL F96N; also called 4G7 H1_L1.68
B8: H1 / L1.92 (antibody, V domains shown)
VH: B1 VH with E56D, E59K, T105S
VL: B1 VL with Q30L, V32S, A34G, N60L, I101F
notes: vs H1L1 (Kabat): VL A55L; also called 4G7 H1_L1.92
B9: H1 / L1.80 (antibody, V domains shown)
VH: B1 VH with E56D, E59K, T105S
VL: B1 VL with Q30L, V32S, A34G, Y39F, N60A, I101F
notes: vs H1L1 (Kabat): VL Y34F; also called 4G7 H1_L1.80
B10: H1 / L1.8 (antibody, V domains shown)
VH: B1 VH with E56D, E59K, T105S
VL: B1 VL with Q30L, V32S, A34G, S57K, N60A, I101F
notes: vs H1L1 (Kabat): VL S52K; also called 4G7 H1_L1.8
B11: H1 / L1.17 (antibody, V domains shown)
VH: B1 VH with E56D, E59K, T105S
VL: B1 VL with Q30L, V32S, A34G, N60A, E98T, I101F
notes: vs H1L1 (Kabat): VL E93T; also called 4G7 H1_L1.17
B12: H1 / L1.9 (antibody, V domains shown)
VH: B1 VH with E56D, E59K, T105S
VL: B1 VL with Q30L, V32S, A34G, S57L, N60A, I101F
notes: vs H1L1 (Kabat): VL S52L; also called 4G7 H1_L1.9
B13: H1 / L1.55 (antibody, V domains shown)
VH: B1 VH with E56D, E59K, T105S
VL: B1 VL with Q30L, V32S, A34G, N58Y, N60A, I101F
notes: vs H1L1 (Kabat): VL N53Y; also called 4G7 H1_L1.55
B14: H1 / L1.26 (antibody, V domains shown)
VH: B1 VH with E56D, E59K, T105S
VL: B1 VL with V32S, A34G, N60A, I101F
notes: vs H1L1 (Kabat): VL L27cQ; also called 4G7 H1_L1.26
B15: H1 / L1.54 (antibody, V domains shown)
VH: B1 VH with E56D, E59K, T105S
VL: B1 VL with Q30L, V32S, A34G, N58G, N60A, I101F
notes: vs H1L1 (Kabat): VL N53G; also called 4G7 H1_L1.54
B16: H1 / L1.67 (antibody, V domains shown)
VH: B1 VH with E56D, E59K, T105S
VL: B1 VL with Q30L, V32S, A34G, N60A, I101V
notes: vs H1L1 (Kabat): VL F96V; also called 4G7 H1_L1.67
B17: H1 / L1.32 (antibody, V domains shown)
VH: B1 VH with E56D, E59K, T105S
VL: B1 VL with Q30L, A34G, N60A, I101F
notes: vs H1L1 (Kabat): VL S27eV; also called 4G7 H1_L1.32
B18: H1 / L1.46 (antibody, V domains shown)
VH: B1 VH with E56D, E59K, T105S
VL: B1 VL with Q30L, V32S, A34G, N58H, N60A, I101F
notes: vs H1L1 (Kabat): VL N53H; also called 4G7 H1_L1.46

Target: T1, human CD19
Test: binding affinity relative to the parent H1L1 mAb (Example 5); assay and format not named on the sheet

Fold change binding [fold] | Binder
3.46 | B1
2.92 | B2
4.73 | B3
1.76 | B4

Target: T1, human CD19
Test: as above
Remark: another data set of the same source

Fold change binding [fold] | Binder
1.85 | B5
1.8 | B6
2.12 | B7
1.54 | B8
1.62 | B9
2.18 | B10
1.57 | B11
1.84 | B12
1.58 | B13
1.73 | B14
1.5 | B15
1.73 | B16
2.61 | B17
1.75 | B18
